Measurements reported in patent US20050260683A1, “Methods for diagnosing and treating pre-term labor” (University of Hawaii, priority 2002, published 2005).
Entries after “also recorded” stand apart in the source; their conditions may differ.

Columns and labels:
Assay type in all cases: cell-based, human
[1] = tested on: IL-6 gene expression in amniotic epithelial (WISH) cells; assay: rhPBEF treatment of WISH cells, IL-6 gene expression by Northern analysis; details: for increase in IL-6 gene expression: 4 h, vs control
Experimental: (§1) Total RNA was extracted (see Chomzynski and Sacchi, supra) and MRNA prepared as previously described (see Aviv and Leder, supra). Samples of MRNA (10-20 μg) were electrophoresed, and the RNA transferred to a nylon membrane (Magna Graph, MSI, Westborough, Mass.) as previously described (see Ognjanovic et al., supra). The cDNA probes were labeled using the Random Primed DNA labeling kit and following the manufacturer's instructions (Invitrogen, Carlsbad, Calif.). The filters were hybridized at 68° C. for 1 h using Express Hyb solution (Clontech, Palo Alto, Calif., USA). A final wash stringency of 0.1×SSC, 0.1% SDS was performed at 50° C. Filters were deprobed in 0.5% SDS for 10 min at 100° C. and re-hybridized sequentially with cDNA probes to PBEF, IL-6 and IL-8 and finally with a human glyceraldehyde-3 phosphate dehydrogenase (G3PDH) cDNA probe (Clontech), as an internal standard. The Northern blot was quantitated with a Phospholmager (Amersham Pharmacia Biotech, Piscataway, N.Y.), using the G3PDH value for each sample to standardize sample loading. Results were expressed as a ratio to G3PDH. Statistical analysis was performed using the Tukey-Kramer multiple comparison test.
(§2) The amnion-like epithelial (WISH) cells were obtained from American Type Culture Collection (ATCC# CCL-25) (ATCC, Manassas, Va.). WISH cells were cultured in Dulbecco's Modified Eagle Medium:Ham F-12 (DMEM:F12) (1:1) supplemented with 10% fetal bovine serum (FBS) (Life Technologies, Grand Island, N.Y.), penicillin (50 U/ml)-streptomycin (50 μg/ml) and incubated at 37° C. in 5% CO2/95% air. After reaching confluency, the cells were trypsinized and plated into 6-well culture dishes at a density of 1×10^5 cells in 4 ml media. After 48 h or when the cells reached 80% confluency, the growth medium was replaced with minimal media (0.5% FBS and 0.2% lactalbumin in DMEM:F12) and incubated for 12 h. Treatment of the cells began with addition of rhPBEF prepared in minimal media. The concentration of rhPBEF was determined using the BioRad protein assay and 1, 10 and 100 ng/ml was added to the cells for 4 and 24 h. Treatment was carried out in triplicate and each experiment was performed at least three times on different occasions. Controls received minimal media containing 0.5% bovine serum albumin (15 μl) in phosphate buffer saline (PBS). […]
In addition to fetal membrane explants, the amniotic epithelial cell line, WISH cells, were also used to study the effects of PBEF on the expression of IL-6 and IL-8. The expression of the IL-6 and IL-8 genes were quantitated by Northern blotting using total RNA isolated from the cells and calculated as the degree of upregulation (fold) compared to the respective control at each time (see FIGS. 4A-4C). […]

[2] = tested on: IL-8 gene expression in amniotic epithelial (WISH) cells; assay: rhPBEF treatment of WISH cells, IL-8 gene expression by Northern analysis; details: rhPBEF 100 ng/ml, 4 h
Experimental: as §1, with “Statistical analysis was performed using the Tukey-Kramer multiple comparison test.” left out
The amnion-like epithelial (WISH) cells were obtained from American Type Culture Collection (ATCC# CCL-25) (ATCC, Manassas, Va.). […] The concentration of rhPBEF was determined using the BioRad protein assay and 1, 10 and 100 ng/ml was added to the cells for 4 and 24 h. […]

[3] = tested on: IL-8 protein in WISH cell culture media; assay: rhPBEF treatment of WISH cells, IL-8 protein in media by ELISA; details: rhPBEF 10 ng/ml, 4 h
Experimental: as §2, with “h.” for “h. Treatment was carried out in triplicate and each experiment was performed at least three times on different occasions. Controls received minimal media containing 0.5% bovine serum albumin (15 μl) in phosphate buffer saline (PBS).”
The IL-8 enzyme-linked immunosorbent assay (ELISA) kit was purchased from R&D Systems (Minneapolis, Minn.) and used to determine the IL-8 protein concentration in the culture supernatants following the manufacturer's protocol. […] The basal levels of IL-6 protein in conditioned media of WISH cells were reported to be at the limit of sensitivity of ELISA (see Keelan et al., supra) and could not be considered reliable, therefore the levels of IL-6 protein were not measured.

[4] = tested on: IL-6 gene expression in fetal membrane explants; assay: rhPBEF treatment of fetal membrane explants, IL-6 gene expression by Northern analysis; details: rhPBEF 100 ng/ml, 4 h, vs control
Description: (§3) elective term Cesarean section without labor (n=7). For the Northern analysis of IL-6 and IL-8 gene expression after rhPBEF treatment, fetal membranes from elective term Cesarean sections before labor (37-40 weeks gestation, n=6) were collected and cut into 3×3 cm explants. None of the preterm or term patients or tissues had any clinical or histological signs of chorioamnionitis. The placentas and membranes were examined by a pathologist for histological evidence of infection using the criteria of Naeye (see Naeye R I. “Disorders of the placenta, fetus and neonate: diagnosis and clinical significance.” St Louis: C U Mosby; 1992. p.258) and all tissues with any sign of infection were excluded from this study.
Total RNA was extracted (see Chomzynski and Sacchi, supra) and MRNA prepared as previously described (see Aviv and Leder, supra). Samples of MRNA (10-20 μg) were electrophoresed, and the RNA transferred to a nylon membrane (Magna Graph, MSI, Westborough, Mass.) as previously described (see Ognjanovic et al., supra). The cDNA probes were labeled using the Random Primed DNA labeling kit and following the manufacturer's instructions (Invitrogen, Carlsbad, Calif.). […] The Northern blot was quantitated with a Phospholmager (Amersham Pharmacia Biotech, Piscataway, N.Y.), using the G3PDH value for each sample to standardize sample loading. Results were expressed as a ratio to G3PDH. […]

[5] = tested on: IL-8 gene expression in fetal membrane explants; assay: rhPBEF treatment of fetal membrane explants, IL-8 gene expression by Northern analysis; details: rhPBEF 100 ng/ml, 4 h, vs control
Description: as §3, §1
Each fetal membrane was cut into several 3×3 cm explants. […]

[6] = tested on: key mediators of labor in fetal membrane explants; assay: rhPBEF treatment of fetal membrane explants, gene chip analysis (Affymetrix); details: rhPBEF 100 ng/ml, 4 hours
Experimental: Fetal membranes from three patients were cut into several 3×3 cm explants. One explant was used to check for infection. Another explant was treated with 100 ng/ml rhPBEF in minimal media for 4 hours, an adjacent explant was used as a control and was incubated in minimal media only for the same period. At the end of this time, total RNA was extracted using the RNeasy Maxi kit (Qiagen Inc., Valencia, Calif.). These RNAs were run in pairs (explants treated and controls from each of the patients), were reverse-transcribed and the resulting cDNAs/cRNAs labeled with tracking fluorescent dyes and hybridized to DNA microchips (Affymetrix Inc.) containing 22,000 gene transcripts. The binding of the fluorescent fragments was proportional to the abundance of the gene in the original samples. Therefore changes in gene expression result in signal differences. […] The Affymetrix system has numerous controls built into the methodology in order to minimize false positive results.

B1: rhPBEF: recombinant human pre-B cell colony-enhancing factor produced in a bacterial system using pTrcHis2 vector (protein)
chain: MNPAAEAEFNILLATDSYKVTHYKQYPPNTSKVYSYFECREKKTENSKLRKVKYEETVFYGLQYILNKYLKGKVVTKEKIQEAKDVYKEHFQDDVFNEKGWNYILEKYDGHLPIEIKAVPEGFVIPRGNVLFTVENTDPECYWLTNWIETILVQSWYPITVATNSREQKKILAKYLLETSGNLDGLEYKLHDFGYRGVSSQETAGIGASAHLVNFKGTDTVAGLALIKKYYGTKDPVPGYSVPAAEHSTITAWGKDHEKDAFEHIVTQFSSVPVSVVSDSYDIYNACEKIWGEDLRHLIVSRSTQAPLIIRPDSGNPLDTVLKVLEILGKKFPVTENSKGYKLLPPYLRVIQGDGVDINTLQEIVEGMKQKMWSIENIAFGSGGGLLQKLTRDLLNCSFKCSYVVTNGLGINVFKDPVADPNKRSKKGRLSLHRTPAGNFVTLEEGKGDLEEYGQDLLHTVFKNGKVTKSYSFDEIRKNAQLNIELEAAHH
- increase in IL-6 gene expression ([1]; rhPBEF 1 ng/ml): 15%
- increase in IL-6 gene expression ([1]; rhPBEF 10 ng/ml): 29%
- increase in IL-6 gene expression ([1]; rhPBEF 100 ng/ml): 44%
- IL-6 gene expression, dose dependence ([1]; rhPBEF 1, 10 and 100 ng/ml, 4h): dose-dependent increase
- increase in IL-8 gene expression [2]: absent
- increase in secreted IL-8 (ELISA) [3]: 15%
- upregulation of IL-6 gene expression [4]: 40%
- upregulation of IL-8 gene expression [5]: 120%
- upregulation of IL-8 gene expression ([5]; listed as PBEF): 120%
- upregulation of IL-8 gene expression ([5]; listed as RhPBEF): significant (p<0.05) increase
- COX-2 gene expression [6]: stimulates; also recorded: significantly upregulated
- GRO-γ gene expression [6]: significantly upregulated
- IL-1β gene expression [6]: stimulates; also recorded: significantly upregulated
- IL-6 gene expression [6]: stimulates; also recorded: significantly upregulated
- MIP-1α gene expression [6]: significantly upregulated
- MIP-1β gene expression [6]: significantly upregulated
- TNF-α gene expression [6]: stimulates; also recorded: significantly upregulated
